The source of these data is PMC10397247.

Assay [1] concerns the target T1, 4H741-bA.
T1 chain: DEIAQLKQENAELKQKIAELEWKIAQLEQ
Briefly: two-hybrid library CCNG1.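 Further: natural log of median RNA to DNA barcode read ratio; higher means stronger binding.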

Assay [2] concerns the target T2, 4H492-bA.
T2 chain: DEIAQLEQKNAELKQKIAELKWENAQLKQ
In words: two-hybrid library CCNG1.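 Further: natural log of median RNA to DNA barcode read ratio; higher means stronger binding.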

The target of assay [3] is T3, 4H458-AA.
T3 chain: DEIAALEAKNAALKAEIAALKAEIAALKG
Briefly: two-hybrid library CCmax.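 Further: natural log of median RNA to DNA barcode read ratio; higher means stronger binding.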 The following applies: mean of both orientations.

For assay [4], the target named is T4, 4H891-AA.
T4 chain: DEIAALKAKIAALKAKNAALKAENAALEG
Briefly: two-hybrid library CCmax.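 Further: natural log of median RNA to DNA barcode read ratio; higher means stronger binding.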 The following applies: mean of both orientations.

Assay [5] has as its target T5, 4H3381-AA.
T5 chain: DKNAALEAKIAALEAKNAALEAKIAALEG
Briefly: two-hybrid library CCmax. The following applies: mean of both orientations.

Assay [6] concerns the target T6, 4H850-AA.
T6 chain: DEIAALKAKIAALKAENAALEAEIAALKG
In words: two-hybrid library CCmax. The conditions noted are these: mean of both orientations.

The target in assay [7] is T7, 4H3016-AA.
T7 chain: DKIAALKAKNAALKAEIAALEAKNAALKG
In words: two-hybrid library CCmax. The following applies: mean of both orientations.

In assay [8] the target is T8, 4H797-AA.
T8 chain: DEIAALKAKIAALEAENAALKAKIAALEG
Briefly: two-hybrid library CCmax. The following applies: mean of both orientations.

The target in assay [9] is T9, 4H3697-AA.
T9 chain: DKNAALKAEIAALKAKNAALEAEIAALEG
Briefly: two-hybrid library CCmax. The conditions noted are these: mean of both orientations.

For assay [10], the target named is T10, 4H3590-AA.
T10 chain: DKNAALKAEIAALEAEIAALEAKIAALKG
Briefly: two-hybrid library CCmax. The following applies: mean of both orientations.

For assay [11], the target named is T11, 4H909-AA.
T11 chain: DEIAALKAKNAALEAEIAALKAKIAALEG
In words: two-hybrid library CCmax. The conditions noted are these: mean of both orientations.

Assay [12] addresses T12, 4H2865-AA.
T12 chain: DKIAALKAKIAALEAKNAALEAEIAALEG
Briefly: two-hybrid library CCmax. The following applies: mean of both orientations.

Assay [13] addresses T13, 4H710-AA.
T13 chain: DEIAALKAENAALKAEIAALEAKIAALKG
In words: two-hybrid library CCmax. The following applies: mean of both orientations.

The target of assay [14] is T14, 4H3130-AA.
T14 chain: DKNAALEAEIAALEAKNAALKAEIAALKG
In words: two-hybrid library CCmax. The conditions noted are these: mean of both orientations.

The target of assay [15] is T15, 4H3865-AA.
T15 chain: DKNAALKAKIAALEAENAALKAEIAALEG
In words: two-hybrid library CCmax. The following applies: mean of both orientations.

The target in assay [16] is T16, 4H3165-AA.
T16 chain: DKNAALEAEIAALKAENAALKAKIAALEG
In words: two-hybrid library CCmax. The following applies: mean of both orientations.

The target in assay [17] is T17, 4H3395-AA.
T17 chain: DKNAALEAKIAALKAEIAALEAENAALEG
Briefly: two-hybrid library CCmax. The following applies: mean of both orientations.

The target of assay [18] is T18, 4H3009-AA.
T18 chain: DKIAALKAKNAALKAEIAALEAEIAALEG
In words: two-hybrid library CCmax. The conditions noted are these: mean of both orientations.

In assay [19] the target is T19, 4H3120-AA.
T19 chain: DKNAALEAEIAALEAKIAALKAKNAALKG
Briefly: two-hybrid library CCmax. The following applies: mean of both orientations.

Assay [20] deals with T20, 4H629-AA.
T20 chain: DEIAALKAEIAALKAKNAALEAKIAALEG
In words: two-hybrid library CCmax. The following applies: mean of both orientations.

The target of assay [21] is T21, 4H745-AA.
T21 chain: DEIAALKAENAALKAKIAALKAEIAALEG
Briefly: two-hybrid library CCmax. The following applies: mean of both orientations.

Assay [22] has as its target T22, 4H2725-AA.
T22 chain: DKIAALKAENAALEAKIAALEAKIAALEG
In words: two-hybrid library CCmax. The conditions noted are these: mean of both orientations.

Assay [23] has as its target T23, 4H2649-AA.
T23 chain: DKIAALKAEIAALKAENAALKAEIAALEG
In words: two-hybrid library CCmax.

Assay [24] concerns the target T24, 4H536-AA.
T24 chain: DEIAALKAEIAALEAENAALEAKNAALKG
In words: two-hybrid library CCmax. The following applies: mean of both orientations.

Assay [25] concerns the target T25, 4H570-AA.
T25 chain: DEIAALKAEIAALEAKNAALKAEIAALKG
In words: two-hybrid library CCmax. The conditions noted are these: mean of both orientations.

Assay [26] deals with T26, 4H3753-AA.
T26 chain: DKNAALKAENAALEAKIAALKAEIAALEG
In words: two-hybrid library CCmax. The following applies: mean of both orientations.

Assay [27] deals with T27, 4H3410-AA.
T27 chain: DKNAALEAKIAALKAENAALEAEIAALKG
Briefly: two-hybrid library CCmax. The following applies: mean of both orientations.

In assay [28] the target is T28, 4H2698-AA.
T28 chain: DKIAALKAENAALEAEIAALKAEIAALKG
Briefly: two-hybrid library CCmax. The conditions noted are these: mean of both orientations.

Assay [29] has as its target T29, 4H94-AA.
T29 chain: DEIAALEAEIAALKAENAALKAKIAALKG
Briefly: two-hybrid library CCmax. The following applies: mean of both orientations.

For assay [30], the target named is T30, 4H930-AA.
T30 chain: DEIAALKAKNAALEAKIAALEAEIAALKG
In words: two-hybrid library CCmax. The conditions noted are these: mean of both orientations.

Assay [31] concerns the target T31, 4H310-AA.
T31 chain: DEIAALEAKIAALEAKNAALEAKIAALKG
In words: two-hybrid library CCmax. The following applies: mean of both orientations.

Assay [32] concerns the target T32, 4H485-AA.
T32 chain: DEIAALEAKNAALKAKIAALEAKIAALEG
Briefly: two-hybrid library CCmax. The conditions noted are these: mean of both orientations.

In assay [33] the target is T33, 4H796-bH.
T33 chain: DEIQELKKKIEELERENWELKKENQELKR
Briefly: two-hybrid library CCNG1.

Assay [34] addresses T34, 4H949-bH.
T34 chain: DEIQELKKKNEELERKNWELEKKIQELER
In words: two-hybrid library CCNG1.

For assay [35], the target named is T35, 4H932-bH.
T35 chain: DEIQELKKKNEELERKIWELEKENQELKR
In words: two-hybrid library CCNG1.

As to DEIAQLEQKNAELKQKIAELKWENAQLKQ [4H492-bA], the interaction score in [1] was -1.59; in assay [2] it was -0.566.

On to DKIAALKAEIAALKAENAALKAEIAALEG [4H2649-AA], for which the interaction score in assay [3] was -1.33; in assay [4] it was -1.86; in [5] it was -1.34; in assay [6] it was 1.99; in assay [7], -1.64; in assay [8], 0.345. Besides, the interaction score was -1.81 in assay [9]; -0.789 in assay [10]; -1.6 in assay [11]; -1.38 in assay [12]; -1.42 in assay [13]; -0.528 in assay [14]. Moreover, the interaction score is -1.59 in assay [15]; 1.07 in [16]; -1.27 in assay [17]; -0.366 in assay [18]; -1.41 in assay [19]; -0.681 in assay [20]. The interaction score is -0.16 in [21]; 0.985 in assay [22]; 0.376 in assay [23]; 0.807 in [24]; 1.86 in [25]; -1.64 in assay [26]. The interaction score in [27] is -0.287; in [28], -1.14; in assay [29], 2.21; in [30] it was -0.569; in [31] it was -0.563; in [32], -1.19.

On to DEIQELKKKIEELERENWELKKENQELKR [4H796-bH], for which the interaction score in assay [33] is 1.25; in [34], -0.00426; in assay [35], -0.89.
